Laboratory results reported in article PMC10673843, “Selection, characterization and in vivo evaluation of novel CD44v6-targeting antibodies for targeted molecular radiotherapy” (Scientific Reports, 2023).

Target: T1, CD44 (isoform 4), Fc-fused (Homo sapiens, UniProt P16070-4, strain)
T1 construct: printed MW 94.4 kDa; Fc-fused, dimeric presentation; For selections, ELISA and HTRF it was chemically biotinylated by amine coupling; also called CD44iso4; CD44iso4-Fc fusion construct; source: bought: Promab Biotechnologies, produced in HEK293 cells; not shown: Fc (IgG1), C-terminal, kept
Assay: SPR; single cycle kinetics; purified IgG4 captured by an immobilised anti-Fab antibody on a CM5 chip; CD44iso4 (Fc-fused, dimeric) injected in five concentrations between 80 and 0.3 nM; HBS with 0.05% Tween20, pH 7.5; 1:1 model; apparent (possible avidity from the dimeric target)
Conditions: both partners purified

binding result: binds
B1: BIWA4 (bivatuzumab), as human IgG4 (antibody, V domains shown)
VH: EVQLVESGGGLVKPGGSLRLSCAASGFTFSSYDMSWVRQAPGKGLEWVSTISSGGSYTYYLDSIKGRFTISRDNAKNSLYLQMNSLRAEDTAVYYCARQGLDYWGRGTLVTVSS
VL: EIVLTQSPATLSLSPGERATLSCSASSSINYIYWYQQKPGQAPRLLIYLTSNLASGVPARFSGSGSGTDFTLTISSLEPEDFAVYYCLQWSSNPLTFGGGTKVEIK
notes: VH of BIWA4; human IgG4 heavy chain constant region from the in-house vector pHAT-hIgG4, with the hinge-stabilising S228P substitution; numbers count on: EU numbering; VL of BIWA4; light chain constant region of the vector pHAT-hIgG4; also called positive control; source: expiHEK293 cells, transfected, purified (Protein A beads)
